Experiments:
[1] = target: T1, TgoT_6G12 DNA polymerase (Thermococcus gorgonarius, UniProt P56689 1-773, V93Q;D141A;E143A;A485L;V589A;E609K;I610M;K659Q;E664Q;Q665P;R668K;D669Q;K671H;K67 …); assay: X-ray crystallography; ternary complex with incoming ddTTP, 2 mM MnCl2, 3.15 A; 5% PEG 20K, 0.1 M MES-NaOH pH 6.0; Co-crystallization: protein 5 mg/mL with 1.5x primer-template, 5 mM ddTTP or hCTP/ddCTP, 2 mM MnCl2 (not stated for the 6G12 binary DNA complex); incubated at 4 C (binary) or room temperature; 5-10% PEG 20K, 0.1 M MES-NaOH pH 6.0-6.5; protein buffer 50 mM Tris-HCl pH 7.5, 200 mM NaCl, 0.1 mM EDTA, 1 mM …; conditions: protein: recombinant, template 5' overhang 8 nt
T1 sequence: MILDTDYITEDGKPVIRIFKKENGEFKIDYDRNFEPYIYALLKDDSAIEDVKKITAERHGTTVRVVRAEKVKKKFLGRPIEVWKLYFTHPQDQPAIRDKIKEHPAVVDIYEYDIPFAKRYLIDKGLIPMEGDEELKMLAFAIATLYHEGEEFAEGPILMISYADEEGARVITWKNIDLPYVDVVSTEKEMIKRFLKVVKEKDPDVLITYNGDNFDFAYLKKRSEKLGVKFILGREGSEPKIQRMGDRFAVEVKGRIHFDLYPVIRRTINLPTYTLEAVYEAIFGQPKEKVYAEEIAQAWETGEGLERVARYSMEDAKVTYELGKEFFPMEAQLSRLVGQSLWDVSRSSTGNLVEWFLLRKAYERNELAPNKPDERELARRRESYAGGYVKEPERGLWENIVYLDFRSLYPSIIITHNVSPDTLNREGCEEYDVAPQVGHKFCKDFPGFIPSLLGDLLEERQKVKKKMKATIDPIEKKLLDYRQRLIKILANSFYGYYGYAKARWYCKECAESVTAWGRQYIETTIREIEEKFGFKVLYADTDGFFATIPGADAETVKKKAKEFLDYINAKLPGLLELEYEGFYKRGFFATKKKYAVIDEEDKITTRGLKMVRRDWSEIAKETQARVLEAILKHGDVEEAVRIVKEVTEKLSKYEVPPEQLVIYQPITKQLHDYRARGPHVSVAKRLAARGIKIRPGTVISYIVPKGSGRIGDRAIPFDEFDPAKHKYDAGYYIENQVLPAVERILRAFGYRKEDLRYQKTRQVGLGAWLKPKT

[2] = target: T1, TgoT_6G12 DNA polymerase; assay: X-ray crystallography; binary complex, 2.8 A; ddTTP added; 10% PEG 20K, 0.1 M MES-NaOH pH 6.5; Co-crystallization: protein 5 mg/mL with 1.5x primer-template, 5 mM ddTTP or hCTP/ddCTP, 2 mM MnCl2 (not stated for the 6G12 binary DNA complex); incubated at 4 C (binary) or room temperature; 5-10% PEG 20K, 0.1 M MES-NaOH pH 6.0-6.5; protein buffer 50 mM Tris-HCl pH 7.5, 200 mM NaCl, 0.1 mM EDTA, 1 mM DTT; conditions: protein: recombinant, template 5' overhang 8 nt

B1: P5-T13' primer-template (dsDNA)
DNA 1: CGCAT
DNA 2: AACGGCAAATGCG
[1]
  binding result: binds

B2: P5-T13 primer-template (dsDNA)
DNA 1: CGCAT
DNA 2: AACGGCTAATGCG
[2]
  binding result: binds

— publication PMC7763228, “Structural Studies of HNA Substrate Specificity in Mutants of an Archaeal DNA Polymerase Obtained by Directed Evolution”
